Assay results as given in patent US20260055182A1.

How the values were obtained:
[1] = target: human C1q purified protein (human) (UniProt P02745); assay: SPR (Biacore T200), C1q reversibly immobilised, antibody as analyte
human FcyRI/CD64 (human) = human FcyRI/CD64 (human) (UniProt P12314); assay: SPR (Biacore 8K+), receptor reversibly immobilised, antibody as analyte
[2] = target: human FcyRIIA/CD32a (H167) (human) (UniProt P12318); assay: as above
[3] = target: human FcyRIIIA/CD16a (V176) (human) (UniProt P08637); assay: as above
Sequence of human FcyRIIIA/CD16a (V176) (human) (P08637 17-208 F176V limits assumed): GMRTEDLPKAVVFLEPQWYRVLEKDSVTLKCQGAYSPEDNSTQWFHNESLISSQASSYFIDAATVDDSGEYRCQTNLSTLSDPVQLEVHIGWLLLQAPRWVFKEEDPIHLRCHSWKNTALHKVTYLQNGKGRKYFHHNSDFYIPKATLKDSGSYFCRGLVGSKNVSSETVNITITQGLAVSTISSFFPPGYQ

[4] = target: human FcRn / FCGRT&B2M (human) (UniProt P55899); assay: SPR (Biacore T200), pH 6.0, FcRn reversibly immobilised, antibody as analyte

Sequence of human C1q purified protein (human) (P02745 23-245, chain 1 of 3): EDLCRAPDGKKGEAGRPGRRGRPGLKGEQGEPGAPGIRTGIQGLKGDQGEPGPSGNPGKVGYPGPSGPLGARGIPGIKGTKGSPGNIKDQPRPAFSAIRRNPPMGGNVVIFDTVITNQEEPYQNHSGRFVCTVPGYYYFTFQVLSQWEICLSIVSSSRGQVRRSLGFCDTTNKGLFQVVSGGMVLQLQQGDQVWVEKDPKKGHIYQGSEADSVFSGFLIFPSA
Sequence of human C1q purified protein (human) (P02746 28-253, chain 2 of 3, further chain): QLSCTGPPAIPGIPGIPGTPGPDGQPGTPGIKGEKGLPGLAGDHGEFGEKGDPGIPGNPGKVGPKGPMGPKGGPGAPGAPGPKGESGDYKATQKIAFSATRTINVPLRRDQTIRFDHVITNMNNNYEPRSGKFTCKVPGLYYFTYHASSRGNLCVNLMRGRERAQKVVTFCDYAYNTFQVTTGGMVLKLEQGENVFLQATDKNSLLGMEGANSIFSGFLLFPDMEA
Sequence of human C1q purified protein (human) (P02747 29-245, chain 3 of 3, further chain): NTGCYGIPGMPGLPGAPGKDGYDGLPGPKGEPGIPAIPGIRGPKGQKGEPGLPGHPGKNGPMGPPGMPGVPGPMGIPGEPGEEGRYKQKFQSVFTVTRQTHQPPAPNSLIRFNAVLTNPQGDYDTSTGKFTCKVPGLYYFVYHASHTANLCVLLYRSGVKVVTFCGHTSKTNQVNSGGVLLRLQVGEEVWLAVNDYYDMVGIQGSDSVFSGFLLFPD
Sequence of human FcyRIIA/CD32a (H167) (human) (P12318 36-218): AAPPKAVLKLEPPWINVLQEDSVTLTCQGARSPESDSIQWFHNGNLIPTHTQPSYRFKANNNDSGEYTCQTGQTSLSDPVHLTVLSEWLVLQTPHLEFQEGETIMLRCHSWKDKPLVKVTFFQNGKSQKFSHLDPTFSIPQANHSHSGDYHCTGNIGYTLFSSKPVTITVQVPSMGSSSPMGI
Sequence of human FcyRI/CD64 (human) (P12314 16-288 limits assumed): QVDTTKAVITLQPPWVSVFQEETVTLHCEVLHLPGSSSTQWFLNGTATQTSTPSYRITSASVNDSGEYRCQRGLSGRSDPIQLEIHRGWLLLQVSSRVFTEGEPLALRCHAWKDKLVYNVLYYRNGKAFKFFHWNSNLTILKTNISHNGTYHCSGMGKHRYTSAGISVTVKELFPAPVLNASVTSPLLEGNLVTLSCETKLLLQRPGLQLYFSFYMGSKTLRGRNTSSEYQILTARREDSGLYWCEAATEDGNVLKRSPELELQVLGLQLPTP

Kd [1]: 129 nM
Kd (human FcyRI/CD64 (human)): 0.0407 nM
Kd [2]: 324 nM
Kd [3]: 57.9 nM
Kd [4]: 384 nM
Substance: Mabthera (Rituximab) (antibody)
